The term Kd denotes a measure of binding affinity in units of concentration.

Assay [1] has as its target T1, human coagulation factor XII (human).
T1 construct: coagulation factor XII (serine protease zymogen), human; also called FXII; contact factor XII; source: bought: Haemochrom Diagnostica, Germany
Briefly: SPR; Biacore 3000, CM3 chip, Gallo2179 immobilised (1900 RUs) by amine coupling; FXII as analyte at 12.5 - 200 nM; 25°C, PBS running buffer; 1:1 Langmuir global fit. As to conditions: both partners purified. In general terms: Surface plasmon resonance follows binding to a sensor surface in real time, without labels.

Assay [2] has as its target T1, human coagulation factor XII. The experiment in a line: MST; NT-647 labeled Gallo2179 kept constant (estimated 50-300 nM); 16-step serial dilution of non-labeled FXII (6.25 μM - 0.19 nM) or HK (4.15 μM - 0.12 nM); Monolith NT.115; three independent measurements. Conditions: both partners purified.

B1: Pil1 collagen-binding adhesin Gallo2179 of Streptococcus gallolyticus subsp. gallolyticus UCN34, recombinant (natural protein)
chain: MFYYLGEGIINFRKLFIALVLIIFSFFTVSEVRAADVSNRVTSLTVATTELQDGGRTTVRVEFNDRAGKIHSGDTIEVTWSISNSIYLNGYTKSIPLTIQGVNVGTLEVTEHNAIFKFNSNIETMENVSGWGEFEVIGRNVTNTSSENTGTAVVQVGGYSQNISITKPQSGTGTSSFYYKTGDIQPSDTNRVRWFLLVNNNKEYVESDVTIEDDIQSGQTLDMSSFDITISGYQNKRFVGESALEEFKRSCPNSSIEITQKSEGGHISIRLSRDDVILNTISIHYKTKILDFDQEKFANNSNITYKPLYKDWVTNKESNYEVVNVNANGGVDGSRYTSVTVNKVWNDKDNQDGKRSDKVVIQLLADGQEISGKQLELSEENGWSGTFEKLNKYHSDNTLITYTVKEVTDLPDYQTTVSENSKNNYTITNTHIPEVIDLSGKKIWDDNNNQDGIRPETITVHLLANGVDTGQVKTVSKSDNWEYQFKDLPKYQNGEKVVYTVSEDVVVGYEMSVSGMNLTNTHTPEVTNILISKYWDDNDDKLKKRPESIQITLHANGKEYQTVTLTASNQWQYEFKDLPKYKDGEKIAYTVTEADVPNYQLISIEEDESGNWKITNKVEESYLFPNTGGKGISGYYTVGIVLLLSIGLLFLKKFIGDY
modifications: fluorescent label NT-647 covalently attached by NHS coupling (in the MST only)
On to B1, for which the Kd is 14 nM in assay [1] and 12.9 nM in assay [2].

The record behind these values is article PMC5955193, “Streptococcus gallolyticus subsp. gallolyticus endocarditis isolate interferes with coagulation and activates the contact system” (Virulence, 2017).
